Columns and labels:
[1] = Quantification of functional active sites with single turnover substrate DNPFG; format: biochemical; conditions: for Active sites, 2,4-DNPFG: mole ratio of 2,4-DNP released and enzyme protein, mean ± SE, n = 8
Protocol: Catalytic activities of Vela and Imig were analyzed with 4MU-Glc and GC substrates. Vela had ∼6–10% reproducibly greater activity compared to Imig (Table 1). The functional active sites of these two enzymes were quantified using the single turnover substrate DNPFG, and consistent with the hydrolytic activity, ∼5–7% more functional active sites were quantified with Vela than with Imig (Table 1).
(§1) Vela and Imig were compared for kinetic properties as described. Briefly, the standard GCase activity assay contained final concentrations of 50 mM citrate/phosphate, pH 5.5, 0.25% TC, 0.25% TX, and 4 mM 4MU-Glc in 200 µl. The reactions were stopped after incubation (30–60 min, 37°C) using 0.9 M ethylenediamine, pH 11.0 (100 µl). Standard curves for 4-MU fluorescence yield were generated for each assay with Ex/Em 460/515 nm (Molecular Dynamics SpectraMax GeminXS spectrofluorometer). […] For the reversible competitive inhibitors, Ki was calculated from IC50 = Ki (1+ [I]/[Km]). The IC50 or Ki values for various inhibitors (dNM and its derivatives, CBE, CS, IFG, DNPFG) were determined using 4MU-Glc as substrate. Activities with the NBD-GC substrate were as described. Enzyme assays with saposin C (0–500 nM/0.5 µM BPS) and BPS (0–2 µM) were as described, [40]. Saposin C was expressed in E. coli and purified as described. For thermostability assessments, equal amounts of Vela and Imig activities were added to 50 mM citrate/phosphate, pH 7.4, with or without human/mouse serum, and incubated for 0–240 min at 25 or 37°C. The pH optimum profiles were developed using 50 mM citrate/phosphate, pH 4.4–7.2. Protease susceptibilities of the two GCases were evaluated by cathepsin D (1–2 µM) digestion in 25 mM sodium acetate, pH 4.8, 50 mM NaCl, 1.25 mM EDTA, 1.25 mM DTT using 200 ng of Vela or Imig at 37°C for 4 h. All assays were conducted in triplicate and repeated at least twice. The amounts of intact enzyme were determined from density measurements on immunoblots and were compared to the initial amounts. […]

[2] = GCase activity assay with NBD-GC substrate; format: biochemical; conditions: mean ± SE, n = 10
Protocol: as §1, with “For thermostability assessments, equal amounts of Vela and Imig activities were added to 50 mM citrate/phosphate, pH 7.4, with or without human/mouse serum, and incubated for 0–240 min at 25 or 37°C. The pH optimum profiles were developed using 50 mM citrate/phosphate, pH 4.4–7.2.” left out, “All assays were conducted in triplicate and repeated at least twice.” left out

saposin C = target: T1, saposin C (Homo sapiens, UniProt P07602); assay: Activation of GCase by saposin C in detergent-free system; format: biochemical; conditions: for saposin C concentration of maximum activation: in the presence of 0.5 µM BPS; for increase of activity with saposin C: saposin C 0 to 500 nM, detergent-free
T1 construct: Saposin C was expressed in E. coli and purified as described [40]; made in house; host or cells: E. coli
T1 sequence (P07602 311-390 limits assumed): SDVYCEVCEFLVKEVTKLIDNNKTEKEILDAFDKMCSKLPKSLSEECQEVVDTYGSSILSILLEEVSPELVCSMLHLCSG
Protocol: Activation of Vela and Imig by the negatively charged lipid, BPS, and saposin C was determined in a detergent-free system with varying concentrations of either agent. The activities of both enzymes increased by 5- to 6-fold or 15- to 17-fold with saposin C (0 to 500 nM) or BPS (0 to 2 µM), respectively. […] Similarly, in the absence of saposin C, both enzymes reacted maximal activation with 0.5 µM of BPS. No significant differences were found in these responses (p = 0.5875–0.8473).
(§2) Vela and Imig were compared for kinetic properties as described. Briefly, the standard GCase activity assay contained final concentrations of 50 mM citrate/phosphate, pH 5.5, 0.25% TC, 0.25% TX, and 4 mM 4MU-Glc in 200 µl. The reactions were stopped after incubation (30–60 min, 37°C) using 0.9 M ethylenediamine, pH 11.0 (100 µl). Standard curves for 4-MU fluorescence yield were generated for each assay with Ex/Em 460/515 nm (Molecular Dynamics SpectraMax GeminXS spectrofluorometer). […] For the reversible competitive inhibitors, Ki was calculated from IC50 = Ki (1+ [I]/[Km]). The IC50 or Ki values for various inhibitors (dNM and its derivatives, CBE, CS, IFG, DNPFG) were determined using 4MU-Glc as substrate. Activities with the NBD-GC substrate were as described. Enzyme assays with saposin C (0–500 nM/0.5 µM BPS) and BPS (0–2 µM) were as described, [40]. Saposin C was expressed in E. coli and purified as described. For thermostability assessments, equal amounts of Vela and Imig activities were added to 50 mM citrate/phosphate, pH 7.4, with or without human/mouse serum, and incubated for 0–240 min at 25 or 37°C. The pH optimum profiles were developed using 50 mM citrate/phosphate, pH 4.4–7.2. Protease susceptibilities of the two GCases were evaluated by cathepsin D (1–2 µM) digestion in 25 mM sodium acetate, pH 4.8, 50 mM NaCl, 1.25 mM EDTA, 1.25 mM DTT using 200 ng of Vela or Imig at 37°C for 4 h. All assays were conducted in triplicate and repeated at least twice. The amounts of intact enzyme were determined from density measurements on immunoblots and were compared to the initial amounts. The ratios of intact enzyme with and without cathepsin D were used as indicators of the enzyme's proteolytic susceptibility.

[3] = pH- and thermostability of enzyme activity in buffer or serum; format: physicochemical; conditions: for irreversible loss of activity by 2 h / loss of activity by 4 h: pH 7.4, citrate/phosphate buffer or mouse or human serum, 37 or 25°C
Protocol: as §2

9 V/null mice [4] = assay: GC levels in liver, spleen and lung after weekly enzyme injections; format: in vivo, mouse; conditions: for GC lipid levels in lung: 5 and 15 U/kg/wk; for reduction of GC levels in liver: 15 U/kg/wk (before 8 wks); for decrease of GC in lung (suggested trend): variable; for reduction of GC levels in spleen: all three dosing groups; for reduction of GC levels and storage cell numbers in livers / reduction of GC levels and storage cell numbers in spleens: dose dependent, 5, 15 or 60 U/kg/wk, abstract
Description: (§3) Mice were sacrificed one week after the last injection, and sera and organs were collected for serologic studies, GCase activities, GC levels, and quantification of storage cells. At one week after the last injection, the GCase activities in liver, spleen, and lung had returned to background levels (not shown).
(§4) Mice were anesthetized with isoflurane.
GC levels in liver, lung, and spleen from 9 V/null and WT mice were quantified by LC/MS-MS (Lipidomic Core, University of South Carolina). The GC levels were normalized to protein in the same lysates used for GCase activity and expressed as the percentage change relative to the GC levels of matched samples from saline-injected mice. WT lysates were used as a reference. The Student's t-test was used for statistical comparisons.

9 V/null mice [5] = assay: Storage cell quantification in liver and lung; format: in vivo, mouse; conditions: for numbers of storage cells in lungs (CD68): any dose
Description: as §3, §4
Duplicate tissue sections were fixed in 10% formalin for hematoxylin and eosin (H&E) staining and in 4% paraformaldehyde-PBS, pH 7.4 for immunohistochemistry with CD68 antibody and examined using a Zeiss microscope equipped with SPOT Advance software (SPOT Diagnostic Instruments, Inc.). […] Mice (n = 6–14) in the Vela-, Imig-, or saline-treated groups were used, and the resultant data were analyzed using the Student's t-test.

cathepsin D = assay: Protease susceptibility to cathepsin D digestion; format: biochemical; conditions: for degradation by cathepsin D after 4 h: cathepsin D 1 µg/ml; for degradation by cathepsin D within 4 h: cathepsin D 2 µg/ml
Protocol: as §2, with “Protease susceptibilities of the two GCases were evaluated by cathepsin D (1–2 µM) digestion in 25 mM sodium acetate, pH 4.8, 50 mM NaCl, 1.25 mM EDTA, 1.25 mM DTT using 200 ng of Vela or Imig at 37°C for 4 h.” left out

[6] = 5 or 15 U/kg/wk, week 4 or 8, compared to saline-injected controls

Row | Molecule | Active sites, 2,4-DNPFG [1] | GCase activity, NBD-GC [2] | saposin C concentration of maximum activation (saposin C) | increase of activity with saposin C (saposin C) | t1/2 of GCase activity ([3]; 25°C + h-serum) | t1/2 of GCase activity ([3]; 25°C + m-serum) | t1/2 of GCase activity ([3]; 25°C in CP, pH 7.4) | t1/2 of GCase activity ([3]; 37°C + h-serum) | t1/2 of GCase activity ([3]; 37°C + m-serum) | t1/2 of GCase activity ([3]; 37°C in CP, pH 7.4) | irreversible loss of activity by 2 h [3] | loss of activity by 4 h [3] | GC lipid levels in lung (9 V/null mice [4]) | decrease of GC levels in liver (9 V/null mice [4]; [6]) | reduction of GC levels in liver (9 V/null mice [4]) | decrease of GC in lung (suggested trend) (9 V/null mice [4]; 60 U/kg/wk, 8 wks) | decrease of GC levels in liver (9 V/null mice [4]; 60 U/kg/wk, week 4) | reduction of GC levels in spleen (9 V/null mice [4]; 4 wks) | reduction of GC levels in spleen (9 V/null mice [4]; 8 wks) | reduction of GC levels and storage cell numbers in livers (9 V/null mice [4]) | other results
1 | velaglucerase alfa (protein, N-linked oligosaccharides with higher α-mannosyl content (predominant number of mannoses is 9)) ARPCIPKSFGYSSVVCVCNATYCDSFDPPTFPALGTFSRYESTRSGRRMELSMGPIQANHTGTGLLLTLQPEQKFQKVKGFGGAMTDAAALNILALSPPAQNLLLKSYFSEEGIGYNIIRVPMASCDFSIRTYTYADTPDDFQLHNFSLPEEDTKLKIPLIHRALQLAQRPVSLLASPWTSPTWLKTNGAVNGKGSLKGQPGDIYHQTWARYFVKFLDAYAEHKLQFWAVTAENEPSAGLLSGYPFQCLGFTPEHQRDFIARDLGPTLANSTHHNVRLLMLDDQRLLLPHWAKVVLTDPEAAKYVHGIAVHWYLDFLAPAKATLGETHRLFPNTMLFASEACVGSKFWEQSVRLGSWDRGMQYSHSIITNLLYHVVGWTDWNLALNPEGGPNWVRNFVDSPIIVDITKDTFYKQPMFYHLGHFSKFIPEGSQRVGLVASQKNDLDAVALMHPDGSAVVVVLNRSSKDVPLTIKDPAVGFLETISPGYSIHTYLWRRQ | 97.4±0.6% | 1,321,057±67,237 nmole/h/mg | 200 nM | 5- to 6 fold | 176.0 ± 5.87 min | 194.1 ± 6.11 min | 118.6 ± 1.91 min | 127.0 ± 10.14 min | 138.6 ± 3.82 min | 109.2 ± 0.15 min | > 50% | 70–85% | unchanged | 50–70% | ~66% | ~10% | ~85% | 10–15% | 20–30% | 60–95% | more functional active sites than Imig ([1]; DNPFG): 5–7%; reduction of GC levels and storage cell numbers in spleens (9 V/null mice [4]): 10–30%; numbers of storage cells in lungs (CD68) (9 V/null mice [5]): not different from saline control; difference in cellular clearance compared to Imig (9 V/null mice [5]; lungs, Gaucher cells, not significant): ~10%; degradation by cathepsin D after 4 h (cathepsin D): 72–76%; degradation by cathepsin D within 4 h (cathepsin D): completely degraded
2 | imiglucerase (protein, short N-linked oligosaccharide chains with ~3 exposed α-mannosyl residues) ARPCIPKSFGYSSVVCVCNATYCDSFDPPTFPALGTFSRYESTRSGRRMELSMGPIQANHTGTGLLLTLQPEQKFQKVKGFGGAMTDAAALNILALSPPAQNLLLKSYFSEEGIGYNIIRVPMASCDFSIRTYTYADTPDDFQLHNFSLPEEDTKLKIPLIHRALQLAQRPVSLLASPWTSPTWLKTNGAVNGKGSLKGQPGDIYHQTWARYFVKFLDAYAEHKLQFWAVTAENEPSAGLLSGYPFQCLGFTPEHQRDFIARDLGPTLANSTHHNVRLLMLDDQRLLLPHWAKVVLTDPEAAKYVHGIAVHWYLDFLAPAKATLGETHRLFPNTMLFASEACVGSKFWEQSVRLGSWDRGMQYSHSIITNLLYHVVGWTDWNLALNPEGGPNWVRNFVDSPIIVDITKDTFYKQPMFYHLGHFSKFIPEGSQRVGLVASQKNDLDAVALMHPDGSAVVVVLNRSSKDVPLTIKDPAVGFLETISPGYSIHTYLWHRQ | 91.6±2.2% | 1,191,610±56,390 nmole/h/mg | 200 nM | 5- to 6 fold | 186.4 ± 6.35 min | 215.2 ± 15.18 min | 122.4 ± 7.75 min | 127.5 ± 10.14 min | 147.3 ± 7.44 min | 111.5 ± 2.48 min | > 50% | 70–85% | unchanged | 50–70% | ~55% | ~10% | ~70% | 10–15% | 20–30% | 60–95% | reduction of GC levels and storage cell numbers in spleens (9 V/null mice [4]): 10–30%; numbers of storage cells in lungs (CD68) (9 V/null mice [5]): not different from saline control; degradation by cathepsin D after 4 h (cathepsin D): 72–76%; degradation by cathepsin D within 4 h (cathepsin D): completely degraded

Reference: paper PMC2873993, “Comparative Therapeutic Effects of Velaglucerase Alfa and Imiglucerase in a Gaucher Disease Mouse Model” (PLoS ONE, 2010)
